Positions count from the first letter of the chain named.
Tests used:
[1] = molecular target: T1, FoxP3ΔN (Mus musculus, UniProt Q99JB6 188-423); assay: EMSA; EMSA: 0.2 uM DNA, 20 mM Tris pH 7.5, 150 mM NaCl, 1.5 mM MgCl2, 2 mM DTT, 30 min at 4 C; anti-HA bead DNA pull-down: 20 min at room temperature; the EMSA IR-FKHM4g length is taken as 31 bp; details: protein: recombinant; tags: His6-NusA cleaved (HRV3C); chain copies: 2; blunt
T1 sequence: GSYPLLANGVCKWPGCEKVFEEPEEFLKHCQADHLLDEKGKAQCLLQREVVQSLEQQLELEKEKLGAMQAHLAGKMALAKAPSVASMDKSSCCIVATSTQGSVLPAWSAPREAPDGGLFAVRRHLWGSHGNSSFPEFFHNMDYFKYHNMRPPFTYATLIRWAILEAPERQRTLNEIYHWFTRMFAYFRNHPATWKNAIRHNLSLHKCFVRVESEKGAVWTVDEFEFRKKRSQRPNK

[2] = molecular target: T2, FoxP3RBR-forkhead (Mus musculus, UniProt Q99JB6 284-423); assay: as above; details: protein: recombinant; tags: His6-NusA cleaved (HRV3C); blunt
T2 sequence: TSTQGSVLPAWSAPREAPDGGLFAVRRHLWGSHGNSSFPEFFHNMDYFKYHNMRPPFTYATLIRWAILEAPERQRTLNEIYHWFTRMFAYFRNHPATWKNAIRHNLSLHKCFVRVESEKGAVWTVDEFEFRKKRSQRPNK

[3] = molecular target: T3, NusA-FoxP3RBR-forkhead A372S (Mus musculus, UniProt Q99JB6 284-423, A372S); assay: as above; details: protein: recombinant; tags: His6-NusA; blunt
T3 sequence: T2 sequence with A89S

[4] = molecular target: T4, FoxP3ΔN'' (Mus musculus, UniProt Q99JB6 204-417, C217S;C231S;del277-314); assay: as above; details: protein: recombinant; tags: His6-NusA cleaved; chain copies: 2; blunt
T4 sequence: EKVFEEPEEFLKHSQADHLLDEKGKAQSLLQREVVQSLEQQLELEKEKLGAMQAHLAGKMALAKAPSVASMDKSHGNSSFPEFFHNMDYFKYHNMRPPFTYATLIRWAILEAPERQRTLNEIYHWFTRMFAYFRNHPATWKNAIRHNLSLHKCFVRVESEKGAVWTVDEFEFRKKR

[5] = molecular target: T5, NusA-FoxP3RBR-forkhead (Mus musculus, UniProt Q99JB6 284-423); assay: as above; details: protein: recombinant; tags: His6-NusA; blunt
T5 sequence: T2 sequence

[6] = molecular target: T6, NusA-FoxP3RBR-forkhead A372G (Mus musculus, UniProt Q99JB6 284-423, A372G); assay: as above; details: protein: recombinant; tags: His6-NusA; blunt
T6 sequence: T2 sequence with A89G

[7] = molecular target: T7, FoxP3ΔN' (Mus musculus, UniProt Q99JB6 204-417, C217S;C231S;del277-304); assay: as above; details: protein: recombinant; tags: His6-NusA cleaved; chain copies: 2; blunt
T7 sequence: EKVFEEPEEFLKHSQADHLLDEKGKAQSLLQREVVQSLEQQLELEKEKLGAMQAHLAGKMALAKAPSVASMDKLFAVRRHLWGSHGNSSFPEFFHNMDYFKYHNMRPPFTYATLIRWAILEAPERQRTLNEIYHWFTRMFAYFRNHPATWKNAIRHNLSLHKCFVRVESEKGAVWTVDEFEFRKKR

[8] = molecular target: T8, FoxP3ZF-CC (Mus musculus, UniProt Q99JB6 188-284); assay: EMSA; up to 4 uM; barely detectable; EMSA: 0.2 uM DNA, 20 mM Tris pH 7.5, 150 mM NaCl, 1.5 mM MgCl2, 2 mM DTT, 30 min at 4 C; anti-HA bead DNA pull-down: 20 min at room temperature; the EMSA IR-FKHM4g length is taken as 31 bp; details: protein: recombinant; blunt
T8 sequence: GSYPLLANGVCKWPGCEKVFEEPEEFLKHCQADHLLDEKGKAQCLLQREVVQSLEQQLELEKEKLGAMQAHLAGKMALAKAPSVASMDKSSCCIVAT

B1: IR-FKHM4g (31bp) (dsDNA)
DNA 1: TTAGGAAAATTTGTTTACTCGAGTAAACAAA
DNA 2: TTTGTTTACTCGAGTAAACAAATTTTCCTAA
B1: binds [1]; binds [2]; binds [3]. B1: binds [4]; binds [5]; binds [6]. B1: binds [7]; no binding [8].

From doi:10.1101/2022.02.08.479534, “FoxP3 can fold into two distinct dimerization states with divergent functional implications for T cell homeostasis”
